Test results reported in the supplement of paper PMC7125110.
± gives the standard error. Variants at the floor of the assay were thinned out.

B1: glmS ribozyme (parent)
chain: AUAAAAGCGCCAGAACUACAGAAAUGUAGUUGACGAGGAGGAGGUUUAUCGAAUUUUCGGCGGAUGCCUCCAAA

Columns and labels:
Conditions in all cases: with glucosamine-6-phosphate
glucosamine-6-phosphate [1] = variants of: B1; experiment: self-cleavage kobs at 40 uM GlcN6P; higher = faster cleavage; RNA array
Outline: (§1)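 The measurements used barcoded ribozyme variants on sequenced MiSeq chips, transcribed in situ by E. coli RNA polymerase and tracked at 37 °C with a hybridised Cy3 probe. Glucosamine-6-phosphate, 40 μM to 10 mM in HEPES/KCl/Mg(OAc)2 buffer, was flowed in while tiles were imaged over ~14 h. Baseline-normalised signals, also normalised to non-cleaving reference variants, gave per-tile medians that were fit to one- or two-exponential decays for kobs. kcat and KM resulted from weighted Michaelis–Menten fits across concentrations.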

glucosamine-6-phosphate [2] = variants of: B1; experiment: self-cleavage kobs at 640 uM GlcN6P; higher = faster cleavage; RNA array
Outline: as §1

glucosamine-6-phosphate [3] = variants of: B1; experiment: self-cleavage kobs at 2500 uM GlcN6P; higher = faster cleavage; RNA array
Outline: as §1

glucosamine-6-phosphate [4] = variants of: B1; experiment: self-cleavage kobs at 10000 uM GlcN6P; higher = faster cleavage; RNA array
Outline: as §1

glucosamine-6-phosphate [5] = variants of: B1; experiment: self-cleavage kobs at 160 uM GlcN6P; higher = faster cleavage; RNA array
Outline: as §1

Row | Variant | self-cleavage kobs at 40 uM GlcN6P (glucosamine-6-phosphate [1]) [s⁻¹] | self-cleavage kobs at 640 uM GlcN6P (glucosamine-6-phosphate [2]) [s⁻¹] | self-cleavage kobs at 2500 uM GlcN6P (glucosamine-6-phosphate [3]) [s⁻¹] | self-cleavage kobs at 10000 uM GlcN6P (glucosamine-6-phosphate [4]) [s⁻¹] | self-cleavage kobs at 160 uM GlcN6P (glucosamine-6-phosphate [5]) [s⁻¹]
1 | G9U G43U | < 1e-05 | < 1e-05 | < 1e-05 | < 1e-05 | 
2 | G9C A33U A52C | < 1e-05 |  |  |  | 
3 | G9C G40A C50A | < 1e-05 |  |  | < 1e-05 | 
4 | C11A A12U A52U | < 1e-05 |  |  |  | 
5 | C10G A12G G59U C61G | < 1e-05 |  |  |  | 
6 | C10U G63U C70U | < 1e-05 |  |  | < 1e-05 | 
7 | C10A A52C | < 1e-05 | < 1e-05 | < 1e-05 | < 1e-05 | 
8 | C10U G38C | < 1e-05 |  |  |  | < 1e-05
9 | G9C A12C A14U U49G | < 1e-05 |  | < 1e-05 |  | 
10 | C10U C11G U65G | < 1e-05 |  |  |  | 
11 | C10G G62A | < 1e-05 | < 1e-05 |  | < 1e-05 | < 1e-05
12 | C10G U31C | < 1e-05 |  |  | < 1e-05 | < 1e-05
13 | C10U U54A C70A | < 1e-05 |  |  |  | 
14 | C11G G40A A42G C58U C67G C68A | 0.00042 ± 9.3e-05 |  |  | 0.000191 ± 3.9e-05 | 
15 | C10G C68A | < 1e-05 |  |  |  | 
16 | C10G U54G | < 1e-05 | < 1e-05 | < 1e-05 |  | < 1e-05
17 | C11G A15C | < 1e-05 | < 1e-05 | < 1e-05 |  | < 1e-05
18 | C10U G40A C67A | < 1e-05 |  |  | < 1e-05 | 
19 | G9C G62U | < 1e-05 | < 1e-05 |  | < 1e-05 | < 1e-05
20 | C10G U30A A42U G51A | < 1e-05 |  |  |  | 
21 | C10G C11G C68U | < 1e-05 |  |  |  | 
22 | C10U G29C G37A A53C | < 1e-05 |  |  |  | 
23 | C10U A15G G40U | < 1e-05 |  |  | < 1e-05 | 
24 | C10U C50G U57G | 0.000105 ± 2.4e-05 |  |  | 4.71e-05 ± 1.6e-05 | 
25 | C10G G29A U54G | < 1e-05 |  |  |  | 
26 | C11G A39U C50G | < 1e-05 | < 1e-05 | < 1e-05 | < 1e-05 | < 1e-05

Row | Variant | self-cleavage kobs at 40 uM GlcN6P (glucosamine-6-phosphate [1]) [s⁻¹] | self-cleavage kobs at 640 uM GlcN6P (glucosamine-6-phosphate [2]) [s⁻¹] | self-cleavage kobs at 2500 uM GlcN6P (glucosamine-6-phosphate [3]) [s⁻¹] | self-cleavage kobs at 10000 uM GlcN6P (glucosamine-6-phosphate [4]) [s⁻¹] | self-cleavage kobs at 160 uM GlcN6P (glucosamine-6-phosphate [5]) [s⁻¹]
27 | C11A G41A C50G G59U | < 1e-05 |  |  | < 1e-05 | 
28 | C10U G37C A42C | < 1e-05 |  | < 1e-05 | < 1e-05 | 
29 | C10U C50G C70G | 5.33e-05 ± 1.6e-05 |  |  |  | 
30 | C10A A48G U49G | < 1e-05 | < 1e-05 | < 1e-05 | < 1e-05 | < 1e-05
31 | C11G G40A G43A | < 1e-05 |  |  | < 1e-05 | 
32 | C11G G37U A53G | < 1e-05 |  |  |  | 
33 | G9U G41U | < 1e-05 | < 1e-05 | < 1e-05 | < 1e-05 | < 1e-05
34 | G9U G41A | < 1e-05 | < 1e-05 | < 1e-05 | < 1e-05 | < 1e-05
35 | C10U G66C | < 1e-05 | < 1e-05 |  | < 1e-05 | 
36 | C10A G59A | < 1e-05 | < 1e-05 |  |  | 
37 | C10A G32A U47A | < 1e-05 |  |  |  | 
38 | C10G C61U C71A | < 1e-05 |  |  |  | 
39 | C10U U49C | < 1e-05 | < 1e-05 | < 1e-05 | < 1e-05 | 
40 | C10U G32C C68A | < 1e-05 |  |  |  | 
41 | C11A U45G | < 1e-05 | < 1e-05 |  |  | < 1e-05
42 | G9U A15C U47C | < 1e-05 |  |  |  | 
43 | C10A G32C | < 1e-05 | < 1e-05 | < 1e-05 |  | 
44 | C10A G60A | < 1e-05 | < 1e-05 | < 1e-05 |  | < 1e-05
45 | C10A G13A U56C | < 1e-05 |  |  |  | 
46 | C11A A12C G38U U69A | 0.000405 ± 0.00012 |  |  | 4.3e-05 ± 2e-05 | 
47 | C10U A42U | < 1e-05 | < 1e-05 | < 1e-05 | < 1e-05 | < 1e-05
48 | G9U G43C U46G C67A | < 1e-05 |  |  |  | 
49 | C11G A12U | < 1e-05 |  | < 1e-05 |  | 
50 | C11G C16G | < 1e-05 |  | < 1e-05 | < 1e-05 | < 1e-05
51 | C10G G51A | < 1e-05 | < 1e-05 | < 1e-05 | < 1e-05 | 
